In patent publication US12385058B2, “Herbicide tolerance protein, encoding gene thereof and use thereof” (Beijing Dabeinong Biotechnology Co., Ltd., priority 2018, dated 2025):

What was measured:
soybean plants = experiment: Herbicide tolerance of transgenic soybean T1 plants (spraying, damage degree); format: in vivo; settings: sprayed with tribenuron-methyl 144 g ai/ha, eight-fold field concentration
Protocol: The degree of damage caused by the herbicide was measured for each plant according to the leaf curl degree and the growth point damage degree 3 days after spraying (3 DAT), 7 days after spraying (7 DAT), 14 days after spraying (14 DAT) and 21 days after spraying (21 DAT): the case where the leaves are flat as untreated plants and the growth points are intact is defined as having a damage degree of 0%; the case where veins are locally browned, new leaves are malformed and plant growth is slow is defined as having a damage degree of 50%; and the case where veins are purple, until the whole plant is dead and the growth points are browned and dry is defined as having a damage degree of 100%. The soybean plants into which the ALT02M1-01 nucleotide sequence was introduced were of three strains in total (S1, S2 and S3), the soybean plants into which the ALT02M2-01 nucleotide sequence was introduced were of three strains in total (S4, S5 and S6), the soybean plants into which the ALT02M3-01 nucleotide sequence was introduced were of three strains in total (S7, S8 and S9), the soybean plants into which the ALT02-01 nucleotide sequence was introduced were of three strains in total (S10, S11 and S12), the control soybean plants were of two strains in total (S13 and S14), and the wild-type soybean plants were of one strain in total (CK1); and 10-15 plants were selected from each strain and tested.

[1] = format: biochemical; settings: 0.2 μg enzyme, 0.2 mM substrate, pH 7.0, 30° C., 20 min
Protocol: (§1) Each reaction was timed beginning with the addition of reactive enzyme, and was terminated with 1 mL of dichloromethane. The organic phase after delamination was dehydrated with anhydrous sodium sulfate.
(§2) The above dehydrated reaction solution was blown dry with nitrogen and filtered by adding 1 mL of methanol, and 20 μL of the filtrate was subjected to liquid chromatography-mass spectrometry (LC-MS). High performance liquid chromatography (HPLC) conditions were as follows: mobile phase being methanol:water (80:20, V/V), Zorbax XDB-C18 chromatographic column (3.5 μm, 2.1×50 mm, Agilent, USA), column temperature being room temperature, UV detector, with a detection wavelength of 255 nm, a sample injection volume of 20 μL, and a flow rate of 0.25 mL/min. The primary ion mass spectrometry conditions were as follows: ion detection mode being multi-reactive ion detection; ion polarity being negative ion; ionization mode being electrospray ionization; a capillary voltage of 4000 volts; a dry gas temperature of 330° C., a flow rate of 10 L/min, an atomizing gas pressure of 35 psi, a collision voltage of 135 volts; and a mass scan range of 300-500 m/z. The secondary ion mass spectrometry conditions were as follows: a collision voltage of 90 volts; a mass scanning range of 30-400 m/z, and other conditions being the same as those of the primary ion mass spectrometry. It was identified by LC-MS that the metabolite of thifensulfuron-methyl was thiophene sulfonic acid, and the metabolite of metsulfuron-methyl, chlorimuron-ethyl, bensulfuron-methyl, sulfometuron-methyl or tribenuron-methyl was its corresponding sulfonic acid. The amount of the generated thiophene sulfonic acid (metabolite) was detected using high performance liquid chromatography (HPLC).

[2] = Degradation of sulfometuron-methyl by purified herbicide tolerant proteins (enzymatic activity, HPLC); format: biochemical; settings: 0.2 μg enzyme, 0.2 mM substrate, pH 7.0, 30° C., 20 min
Protocol: as §1, §2

Molecule	herbicide tolerance compared with soybean plants into which ALT02-01 was introduced (soybean plants)	herbicide tolerance imparted to transgenic soybean plants (soybean plants)	specific enzyme activity, bensulfuron-methyl [1] [µmol/min/mg]	specific enzyme activity, chlorimuron-ethyl [1] [µmol/min/mg]	specific enzyme activity, metsulfuron-methyl [1] [µmol/min/mg]	specific enzyme activity, thifensulfuron-methyl [1] [µmol/min/mg]	specific enzyme activity, tribenuron-methyl [1] [µmol/min/mg]	specific enzyme activity, sulfometuron-methyl [2] [µmol/min/mg]
ALT02M1-01: nucleotide sequence SEQ ID NO: 25 encoding ALT02M1, based on soybean codon usage bias (nucleic acid, the ALT02M1-01 nucleotide sequence encoding the amino acid sequence corresponding to the herbicide tolerant protein ALT02M1 and based on the soybean codon usage bias) DNA: ATGGAGACTGATAACGTGGAACTCGCCCAATCTAAGAGAAAGGTGGTGCTGGCTGAACAAGGGTCATTTTACATAGGGGGTAGGACTGTTACTGGTCCTGGCAAGTTTGATCCATCCAAACCTGTGATACCCTACAGTAACGAAGGAGCAACATTCTATATTAACCAAATGTATGTTAACTTCCAGGCCCCAGTGAGACCTAGGGGACTTCCATTGGTTTTCTGGCATGGAGGTGGCTTGACTGGTCACATCTGGGAGTCTACACCTGACGGCAGACCCGGGTTTCAAACCCTCTTCGTTCAGGATAGGCATACCGTGTACACTATTGACCAACCTGGGAGAGGAAGGGGTAACATCCCAACTTTTAACGGACCTTTCGGACAGTTGGAGGAAGAGAGTATTGTTAACACTGTGACAGCCAATTCTTCAAAGGAAGGTGCCTGGGTGAGAGATAGGCTTGGCCCTGCTCCCGGGCAATTTTTCGAGAACTCTCAGTTTCCTAGAGGCTATGAAGACAATTACTTTAAGGAGATGGGATTCAGCCCATCTATATCCAGTGATGAAATTGTTGACGCTGTTGTGAAACTCGTGACCCATATTGGTCCTTGTGTTCTGGTGACTCACTCAGCATCCGGCGTTCTTGGGATGAGAGTGGCTACACACGCAAAGAATGTTAGGGGAATTGTGGCCTATGAACCAGCTACCTCAATCTTCCCCAAGGGAAAAGTTCCAGAGATACCACCTCTCGCTGATAAGAAAAGCCAAATCTTTCCCCCATTCGAAATACAGGAGTCTTACTTTAAGAAACTTGCCAAGATTCCAATCCAATTTGTTTTCGGAGATAACATCCCCAAGAATCCAAAATCAGCATATTGGTTCCTGGACTGGTGGAGAGTGACAAGATACGCACATAGTCTCAGCCTGGAGGCCATAAACAAATTGGGGGGACAAGCTTCCCTTTTGGATCTTCCTACTGCAGGATTGAGAGGTAATACACACTTTCCCTTCACCGATAGGAACAATGTTCAGGTGGCTTCTCTCCTGTCAGACTTTCTGGGTAAACACGGTCTGGATCAAAATGAGAGCAAACTCGCCGCCGCCCTGGAATGA	significantly increased tolerance to benzenesulfonic acid	impart transgenic soybean plants with the tolerance to benzenesulfonic acid	–	–	–	–	–	–
ALT02M3-01: nucleotide sequence SEQ ID NO: 33 encoding ALT02M3, based on soybean codon usage bias (nucleic acid, the ALT02M3-01 nucleotide sequence encoding the amino acid sequence corresponding to the herbicide tolerant protein ALT02M3 and based on the soybean codon usage bias) DNA: ATGGAGACTGATAACGTGGAACTCGCCCAATCTAAGAGAAAGGTGGTGCTGGCTGAACAAGGGTCATTTTACATAGGGGGTAGGACTGTTACTGGTCCTGGCAAGTTTGATCCATCCAAACCTGTGATACGAGCCAGTAACGAAGGAGCAACATTCTATATTAACCAAATGTATGTTAACTTCCAGGCCCCAGTGAGACCTAGGGGACTTCCATTGGTTTTCTGGCATGGAGGTGGCTTGACTGGTCACATCTGGGAGTCTACACCTGACGGCAGACCCGGGTTTCAAACCCTCTTCGTTCAGGATAGGCATACCGTGTACACTATTGACCAACCTGGGAGAGGAAGGGGTAACATCCCAACTTTTAACGGACCTTTCGGACAGTTGGAGGAAGAGAGTATTGTTAACACTGTGACAGCCAATGTATCAAAGGAACGAGCCTGGGTGAGAGATAGGCTTGGCCCTGCTCCCGGGCAATTTTTCGAGAACTCTCAGTTTCCTAGAGGCTATGAAGACAATTACTTTAAGGAGATGGGATTCAGCCCATCTATATCCAGTGATGAAATTGTTGACGCTGTTGTGAAACTCGTGACCCATATTGGTCCTTGTGTTCTGGTGACTCACTCAGCATCCGGCGTTCTTGGGATGAGAGTGGCTACACACGCAAAGAATGTTAGGGGAATTGTGGCCTATGAACCAGCTACCTCAATCTTCCCCAAGGGAAAAGTTCCAGAGATACCACCTCTCGCTGATAAGAAAAGCCAAATCTTTCCCCCATTCGAAATACAGGAGTCTTACTTTAAGAAACTTGCCAAGATTCCAATCCAATTTGTTTTCGGAGATAACATCCCCAAGAATCCAAAATCAGCATATTGGTTCCTGGACTGGTGGAGAGTGACAAGATACGCACATAGTCTCAGCCTGGAGGCCATAAACAAATTGGGGGGACAAGCTTCCCTTTTGGATCTTCCTACTGCAGGATTGAGAGGTAATACACACTTTCCCTTCACCGATAGGAACAATGTTCAGGTGGCTTCTCTCCTGTCAGACTTTCTGGGTAAACACGGTCTGGATCAAAATGAGAGCAAACTCGCCGCCGCCCTGGAATGA	significantly increased tolerance to benzenesulfonic acid	impart transgenic soybean plants with the tolerance to benzenesulfonic acid	–	–	–	–	–	–
ALT02M2-01: nucleotide sequence SEQ ID NO: 29 encoding ALT02M2, based on soybean codon usage bias (nucleic acid, the ALT02M2-01 nucleotide sequence encoding the amino acid sequence corresponding to the herbicide tolerant protein ALT02M2 and based on the soybean codon usage bias) DNA: ATGGAGACTGATAACGTGGAACTCGCCCAATCTAAGAGAAAGGTGGTGCTGGCTGAACAAGGGTCATTTTACATAGGGGGTAGGACTGTTACTGGTCCTGGCAAGTTTGATCCATCCAAACCTGTGATACCCTACAGTAACGAAGGAGCAACATTCTATATTAACCAAATGTATGTTAACTTCCAGGCCCCAGTGAGACCTAGGGGACTTCCATTGGTTTTCTGGCATGGAGGTGGCTTGACTGGTCACATCTGGGAGTCTACACCTGACGGCAGACCCGGGTTTCAAACCCTCTTCGTTCAGGATAGGCATACCGTGTACACTATTGACCAACCTGGGAGAGGAAGGGGTAACATCCCAACTTTTAACGGACCTTTCGGACAGTTGGAGGAAGAGAGTATTGTTAACACTGTGACAGGAAATGTATCAAAGGAAGGTGCCTGGGTGAGAGATAGGCTTGGCCCTGCTCCCGGGCAATTTTTCGAGAACTCTCAGTTTCCTAGAGGCTATGAAGACAATTACTTTAAGGAGATGGGATTCAGCCCATCTATATCCAGTGATGAAATTGTTGACGCTGTTGTGAAACTCGTGACCCATATTGGTCCTTGTGTTCTGGTGACTCACTCAGCATCCGGCGTTCTTGGGATGAGAGTGGCTACACACGCAAAGAATGTTAGGGGAATTGTGGCCTATGAACCAGCTACCTCAATCTTCCCCAAGGGAAAAGTTCCAGAGATACCACCTCTCGCTGATAAGAAAAGCCAAATCTTTCCCCCATTCGAAATACAGGAGTCTTACTTTAAGAAACTTGCCAAGATTCCAATCCAATTTGTTTTCGGAGATAACATCCCCAAGAATCCAAAATCAGCATATTGGTTCCTGGACTGGTGGAGAGTGACAAGATACGCACATAGTCTCAGCCTGGAGGCCATAAACAAATTGGGGGGACAAGCTTCCCTTTTGGATCTTCCTACTGCAGGATTGAGAGGTAATACACACTTTCCCTTCACCGATAGGAACAATGTTCAGGTGGCTTCTCTCCTGTCAGACTTTCTGGGTAAACACGGTCTGGATCAAAATGAGAGCAAACTCGCCGCCGCCCTGGAATGA	significantly increased tolerance to benzenesulfonic acid	impart transgenic soybean plants with the tolerance to benzenesulfonic acid	–	–	–	–	–	–
ALT01: ALT01 protein (398 amino acids), SEQ ID NO: 1; unmutated herbicide tolerant protein (protein, listed as Methylophilus sp.) MGTALLTGTSAASPVLAAGTGAIGIATLPLSTATAPAGTAAVGLAGSLALVVLAGGGSPTIGGATVTGPGLPAPSLPVIPTSAGGATPTIAGMTVAPGAPVAPAGLPLVPTHGGGLTGHITGSTPAGAPGPGTLPVGAAHTVTTIAGPGAGAGAIPTPAGPPGGLGGGSIVATVTGASSLGGATVAAALGPAPGGPPGASGPPAGTGAATPLGMGPSPSISSAGIVAAVVLLVTHIGPCVLVTHSASGVLGMAVATHALAVAGIVATGPATSIPPLGLVPGIPPLAALLSGIPPPPGIGGSTPLLLALIPIGPVPGAAIPLAPLSATTPLATTAVTATAHSLSLGAIALLGGGASLLALPTAGLAGATHPPPTAAAAVGVASLLSAPLGLHGLAGAGS	–	–	1.7	2.7	2.0	27.4	1.8	1.9
